Measurements taken from patent US20100233154A1, “TARGETED BINDING AGENTS DIRECTED TO HEPARANASE AND USES THEREOF 463” (MedImmune Limited, priority 2008, published 2010).

Assays:
[1] = biological target: T1, recombinant human heparanase (Homo sapiens, UniProt Q9Y251); assay: ELISA binding to directly coated recombinant human heparanase
T1 construct: Heparanase 8 and 50 kDa sub-units were cloned into pacGP67 as Sma 1-EcoR1 fragments; made in house; host or cells: Hi5 insect cells, baculovirus (pFastBac Dual)
T1 sequence (Q9Y251 158-543 limits assumed): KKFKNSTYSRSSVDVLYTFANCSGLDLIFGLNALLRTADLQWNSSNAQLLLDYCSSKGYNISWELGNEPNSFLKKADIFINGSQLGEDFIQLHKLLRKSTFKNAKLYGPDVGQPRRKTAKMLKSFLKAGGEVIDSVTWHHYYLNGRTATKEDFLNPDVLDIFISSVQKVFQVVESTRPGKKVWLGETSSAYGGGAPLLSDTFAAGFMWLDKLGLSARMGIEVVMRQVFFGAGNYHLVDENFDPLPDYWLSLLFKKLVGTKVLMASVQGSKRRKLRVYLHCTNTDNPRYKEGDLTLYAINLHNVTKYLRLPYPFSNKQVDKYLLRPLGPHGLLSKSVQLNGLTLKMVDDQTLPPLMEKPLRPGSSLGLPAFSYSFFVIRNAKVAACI
T1 sequence (Q9Y251 36-109 limits assumed): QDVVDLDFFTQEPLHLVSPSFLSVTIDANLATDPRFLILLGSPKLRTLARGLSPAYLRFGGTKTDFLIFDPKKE
Procedure: (§1) Titres of antibodies from Campaigns 1 and 2 were determined in an ELISA. Costar 3368 medium binding plates were coated directly with recombinant human heparanase or plates were coated with Rabbit anti-heparanase antibody (Raybiotech, Cat. IP-14-155) to capture recombinant heparanase. Directly coated heparanase was detected in three separate plates by mouse (InSight Cat. INS-26-1-0000), goat (Santa Cruz, Cat. sc26136) or rabbit (Raybiotech, Cat. IP-14-155) anti-heparanase antibodies, and quantified using appropriate secondary antibodies. Antibody captured heparanase was detected using mouse anti-heparanase (Insight Cat. INS-26-1-0000). At the end of the immunisation program, fusions were performed using mouse myeloma cells and lymphocytes isolated from the spleens and lymph nodes of the immunised mice by means of electroporation, as described in Example 2.
(§2) Initial screening to detect antibodies binding to human heparanase in both direct coating and antibody capture ELISAs as described above identified 800 hybridomas for further testing; 535 IgG2 from Campaign 1 and 2 and 265 IgG4 from Campaign 2. Enzyme inhibition assays and cross species binding to cynomolgus and murine heparanase, in an antibody capture ELISA, identifed 12 antibodies that were taken forward for sub-cloning to provide purified antibodies for further analysis. Subsequently, confirmation of activity against human heparanase (FIGS. 3 and 4) and inhibition of recombinant cynomolgus and murine heparanase activity in the HS-cryptate degradation assay (FIG. 5a-c), together with sequence analysis, identified 8 antibodies that are described in the table below.

[2] = biological target: T2, recombinant heparanase captured with rabbit anti-heparanase antibody (Homo sapiens, UniProt Q9Y251); assay: ELISA binding to antibody-captured heparanase; details: antibody capture
T2 construct: Heparanase 8 and 50 kDa sub-units were cloned into pacGP67 as Sma 1-EcoR1 fragments; made in house; host or cells: Hi5 insect cells, baculovirus (pFastBac Dual)
T2 sequence (Q9Y251 158-543 limits assumed): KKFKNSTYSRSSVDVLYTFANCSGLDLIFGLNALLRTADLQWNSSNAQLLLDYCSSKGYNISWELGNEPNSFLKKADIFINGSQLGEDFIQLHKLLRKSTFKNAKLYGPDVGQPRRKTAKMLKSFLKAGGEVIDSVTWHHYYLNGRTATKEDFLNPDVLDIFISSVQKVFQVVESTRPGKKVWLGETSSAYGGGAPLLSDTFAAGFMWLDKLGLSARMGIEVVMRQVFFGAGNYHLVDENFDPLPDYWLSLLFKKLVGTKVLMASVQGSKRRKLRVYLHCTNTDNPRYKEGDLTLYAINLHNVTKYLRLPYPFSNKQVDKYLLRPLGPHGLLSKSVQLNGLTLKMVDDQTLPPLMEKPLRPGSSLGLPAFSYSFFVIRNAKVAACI
T2 sequence (Q9Y251 36-109 limits assumed): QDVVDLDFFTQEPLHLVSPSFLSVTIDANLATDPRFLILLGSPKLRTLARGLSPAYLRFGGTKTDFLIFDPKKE
Procedure: as §1, §2

human heparanase = biological target: T3, human heparanase (Homo sapiens, UniProt Q9Y251); assay: Cross species capture ELISA, human heparanase; type: binding
T3 sequence (Q9Y251 36-543): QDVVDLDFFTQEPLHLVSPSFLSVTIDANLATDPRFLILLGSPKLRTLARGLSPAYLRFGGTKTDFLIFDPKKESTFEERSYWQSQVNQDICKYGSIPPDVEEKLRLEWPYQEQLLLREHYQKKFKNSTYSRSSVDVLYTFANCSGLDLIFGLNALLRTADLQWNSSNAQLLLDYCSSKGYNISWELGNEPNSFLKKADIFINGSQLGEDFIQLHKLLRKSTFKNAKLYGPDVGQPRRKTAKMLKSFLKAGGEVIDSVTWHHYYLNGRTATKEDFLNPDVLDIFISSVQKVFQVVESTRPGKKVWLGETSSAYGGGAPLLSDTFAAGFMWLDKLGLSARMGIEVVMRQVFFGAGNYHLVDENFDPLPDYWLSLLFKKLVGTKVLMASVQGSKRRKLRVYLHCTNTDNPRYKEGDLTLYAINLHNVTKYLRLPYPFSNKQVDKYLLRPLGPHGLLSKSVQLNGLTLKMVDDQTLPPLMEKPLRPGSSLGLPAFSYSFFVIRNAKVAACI
Procedure: (§3) Initially, cross species binding to human, murine and cynomolgus heparanase was determined in an ELISA assay in which heparanase was captured onto plates using a rabbit anti-heparanase antibody (Raybiotech, Cat. IP-14-155). Exhaustive supernatants were added to the plates at a final dilution of 1:5 and bound antibody detected with a rabbit anti-human IgG Fc.

cynomolgus heparanase = assay: Cross species capture ELISA, cynomolgus heparanase; type: binding; details: min 0.06, max 1.5 OD units
Procedure: as §3

murine heparanase = biological target: T4, murine heparanase (Mus musculus, UniProt Q6YGZ1); assay: Cross species capture ELISA, murine heparanase; type: binding; details: min 0.06, max 0.9 OD units
T4 construct: made in house; host or cells: Hek293 cells (conditioned medium), inferred for the ELISA
T4 sequence (Q6YGZ1 28-535): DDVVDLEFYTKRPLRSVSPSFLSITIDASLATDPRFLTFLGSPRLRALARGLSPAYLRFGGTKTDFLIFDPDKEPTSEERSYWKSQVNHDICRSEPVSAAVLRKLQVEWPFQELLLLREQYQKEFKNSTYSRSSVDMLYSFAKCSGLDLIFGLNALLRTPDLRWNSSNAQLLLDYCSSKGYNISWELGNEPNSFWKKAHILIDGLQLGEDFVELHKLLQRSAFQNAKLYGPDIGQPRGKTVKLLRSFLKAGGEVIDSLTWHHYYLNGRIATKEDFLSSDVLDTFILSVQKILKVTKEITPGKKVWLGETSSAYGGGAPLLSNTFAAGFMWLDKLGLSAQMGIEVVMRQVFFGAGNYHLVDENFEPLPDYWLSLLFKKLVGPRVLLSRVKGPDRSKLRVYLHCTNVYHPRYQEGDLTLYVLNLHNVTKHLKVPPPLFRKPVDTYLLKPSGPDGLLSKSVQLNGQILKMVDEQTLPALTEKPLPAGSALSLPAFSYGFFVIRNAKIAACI
Procedure: as §3

Recombinant Hpa1 = biological target: T5, Recombinant Hpa1 (Homo sapiens, UniProt Q9Y251); assay: Medium resolution Biacore affinity; type: binding
T5 construct: Heparanase 8 and 50 kDa sub-units were cloned into pacGP67 as Sma 1-EcoR1 fragments; made in house; host or cells: Hi5 insect cells, baculovirus (pFastBac Dual)
T5 sequence (Q9Y251 158-543 limits assumed): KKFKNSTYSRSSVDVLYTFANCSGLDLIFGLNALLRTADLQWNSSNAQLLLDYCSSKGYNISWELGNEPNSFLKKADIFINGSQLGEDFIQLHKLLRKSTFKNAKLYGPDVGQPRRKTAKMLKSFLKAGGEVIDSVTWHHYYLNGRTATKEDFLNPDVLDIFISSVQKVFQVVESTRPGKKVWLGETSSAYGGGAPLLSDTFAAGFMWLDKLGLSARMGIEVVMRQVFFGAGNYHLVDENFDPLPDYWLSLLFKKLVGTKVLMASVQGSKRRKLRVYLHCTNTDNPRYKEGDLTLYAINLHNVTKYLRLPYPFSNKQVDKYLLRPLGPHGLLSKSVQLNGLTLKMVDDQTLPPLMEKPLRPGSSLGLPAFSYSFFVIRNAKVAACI
T5 sequence (Q9Y251 36-109 limits assumed): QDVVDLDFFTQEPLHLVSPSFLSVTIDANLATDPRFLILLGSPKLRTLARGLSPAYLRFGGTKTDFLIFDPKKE
Procedure: For medium resolution Biacore™ tests, cloned and purified antibodies were used. Each of three purified antibodies (10E9.1, 15A1.2, and 15A11.1) were captured onto a high-density goat anti-human antibody surface over a CM4 Biacore™ chip. Recombinant Hpa1 was diluted to the desired concentration (1 nM and 10 nM) in 10 mM HEPES, 150 mM NaCl, 0.005% tween-20, 0.1 mg per ml BSA pH7.4 (25° C.) immediately prior to injection. Data were fit globally to a 1:1 interaction model with a term for mass transport included. The resulting KD values are summarised below in Table 4.

MDA MB231-Hpa1#4 cells = assay: Heparanase expression in cells cultured with antibody (Western blot); type: cell-based, human; details: 25 μg per ml antibody, 72 hrs, compared to untreated or IgG2 control
Procedure: MDA MB231-Hpa1#4 cells were cultured in the presence of 25 μg per ml anti-human heparanase antibody or control IgG2 antibody (Sigma Cat. No. 1504-1MG) for 72 hrs. Following the removal of culture medium, protein extracts were prepared from the cells in 100 μl RIPA buffer and separated on […] gels and transferred to nitrocellulose as described above. Western blots were probed with an anti-heparanase antibody that detected only pro-heparanase (SantaCruz Cat. No. SC25825).

MCF7-Hpa1#19 xenograft = assay: Subcutaneous xenograft tumour growth, MCF7-Hpa1#19; type: in vivo, SCID mice; details: once weekly i.p.; 10E9.1 at 7.5 or 15 mg per kg
Procedure: (§4) MCF7-Hpa1#19 and HCT116 tumour cells were harvested from sub-confluent cultures. A total of 5×10^6 (MCF7-Hpa1#19) or 10^7 (HCT116) tumour cells were inoculated subcutaneously into the flank of male SCID mice. HCT116 tumour cells were implanted in PBS; […] cells were implanted in PBS containing 50% matrigel.
(§5) When tumours had attained ˜200 mm^3, tumour bearing mice were randomised into treatment groups and dosed with the following; PBS; an isotype matched control IgG2 antibody, 15 mg per kg; anti-heparanase antibody 10E9.1, 7.5 or 15 mg per kg. All treatments were administered once weekly i.p. Tumour growth was measured twice per week using calipers and tumour volumes calculated according to an ellipsoid volume is formula (3.142/6×length×width×width) from measures of the largest tumour diameter and two opposing widths (FIG. 11).

HCT116 xenograft = assay: Subcutaneous xenograft tumour growth, HCT116; type: in vivo, SCID mice; details: once weekly i.p.; 10E9.1 at 15 mg per kg
Procedure: as §4, §5

[3] = purified antibody captured on CM4 chip, Hpa1 1 nM and 10 nM, 25° C.

B1: 15A1.2: fully human anti-heparanase monoclonal antibody, G2κ; VH SEQ ID NO 6, VL SEQ ID NO 8; ATCC PTA-9491 (antibody, listed as Homo Sapiens, V domains shown)
VH: QVQLVQSGAEVKKPGASVKVSCKVSGYTLTELSMHWVRQAPGKGLEWMGGFDPEDGETIFAQKFQGRVTMTEDTSTDTAYMELSSLRSEDTAVYYCATGLRFLEWFLWGWDVWGQGTTVTVSS
VL: DIQMTQSPSSVSASVGDRVTITCRASQGISNWLAWYQQTPGKAPQLLIYGASSLQSGVPSRFSGSGSGTDFTLTISSLQPEDFATYYCQQADSFPPTFGQGTKVEIK
notes: fully human anti-heparanase monoclonal antibody, G2κ; ATCC PTA-9491
Binding to direct coated heparanase [1]: 0.08 OD units | Binding to captured heparanase [2]: 0.92 OD units | Binding to heparanase Human (human heparanase): 0.19 OD units | Binding to heparanase Cyno (cynomolgus heparanase): 0.11 OD units | Binding to heparanase Mouse (murine heparanase): 0.14 OD units | Kd (Recombinant Hpa1; 1:1 interaction model with mass transport term): 0.0859 nM | ka (Recombinant Hpa1; [3]): 1.88e+06 M⁻¹ s⁻¹ | kd (Recombinant Hpa1; [3]): 0.000105 s⁻¹ | Inhibition of heparanase expression (MDA MB231-Hpa1#4 cells): significant inhibition of heparanase expression | Tumour growth inhibition (MCF7-Hpa1#19 xenograft): not inhibited | Tumour growth inhibition (HCT116 xenograft): not inhibited

B2: 14H12.3: human anti-heparanase monoclonal antibody, G2λ; VH SEQ ID NO 26, VL SEQ ID NO 28 (antibody, listed as Homo Sapiens, V domains shown)
VH: QVQLVESGGGVVQPGRSLRLSCAASGFTFSSYGMHWVRQAPGKGLEWVAVIWYDGSNKDYADSVKGRFTISRDNSKNTLYLQMNSLRAEDTAVYYCAREGSTSWTDYYGMDVWGQGTTVTVSS
VL: SYELTQPPSVSVSPGQTARITCSGDALPKRYAYWYQQKSGQALVLVIYEDSKRPSGIPERFSGSSSGTMATLTISGAQVEDEADYYCYSIDSSGNHGVFGGGTKLTVL
Binding to direct coated heparanase [1]: 3.69 OD units | Binding to captured heparanase [2]: 3.27 OD units | Binding to heparanase Human (human heparanase): 0.61 OD units | Binding to heparanase Cyno (cynomolgus heparanase): 0.95 OD units | Binding to heparanase Mouse (murine heparanase): 0.14 OD units
